This is an account of results in the supplement of paper PMC5998384.

The subject of series [1] is HeLa Kyoto. The series is described as follows: solubility in G1/S (NP-40 vs SDS abundance) (log2 ratio); higher = more soluble. The following applies: cell cycle stage: G1/S.
Series [2] deals with HeLa Kyoto. The series is described as follows: thermal stability score vs G1/S (z-score of summed log2 fold changes over temperatures); higher = more thermally stable than in G1/S.
The subject of series [3] is HeLa Kyoto. Kind of series: melting temperature (median over replicates), in situ; higher = more thermally stable.
The subject of series [4] is HeLa Kyoto. Kind of series: solubility change mitosis vs G1/S (difference of NP-40 vs SDS log2 ratios) (log2 ratio difference); higher = more soluble in mitosis.
Setting [5] is: cell cycle stage: early G1 (4.5 h after nocodazole release).
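Wherever melting temperature (median over replicates), in situ is given: HeLa Kyoto cells synchronized by double thymidine or nocodazole block, proteins quantified by TMT10plex mass spectrometry, three independent biological replicates.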
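Wherever solubility change mitosis vs G1/S (difference of NP-40 vs SDS log2 ratios) is given: synchronized HeLa Kyoto cells (double thymidine block for G1/S, nocodazole release for mitosis), protein amounts in NP-40 versus SDS lysates quantified by mass spectrometry, three biological replicates.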
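Wherever solubility in G1/S (NP-40 vs SDS abundance) is given: HeLa Kyoto cells arrested at G1/S by double thymidine block, proteins quantified by TMT10plex mass spectrometry in mild NP-40 versus SDS extracts, three biological replicates.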
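Wherever thermal stability score vs G1/S (z-score of summed log2 fold changes over temperatures) is given: synchronized HeLa Kyoto cells, proteins quantified by TMT10plex mass spectrometry, three biological replicates, mitosis taken 0.5 h after nocodazole release, G1/S directly after double thymidine block.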

Turning to “MPEIVDTCSLASPASVCRTKHLHLRCSVDFTRRTLTGTAALTVQSQEDNLRSLVLDTKDLTIEKVVINGQEVKYALGERQSYKGSPMEISLPIALSKNQEIVIEISFETSPKSSALQWLTPEQTSGKEHPYLFSQCQAIHCRAILPCQDTPSVKLTYTAEVSVPKELVALMSAIRDGETPDPEDPSRKIYKFIQKVPIPCYLIALVVGALESRQIGPRTLVWSEKEQVEKSAYEFSETESMLKIAEDLGGPYVWGQYDLLVLPPSFPYGGMENPCLTFVTPTLLAGDKSLSNVIAHEISHSWTGNLVTNKTWDHFWLNEGHTVYLERHICGRLFGEKFRHFNALGGWGELQNSVKTFGETHPFTKLVVDLTDIDPDVAYSSVPYEKGFALLFYLEQLLGGPEIFLGFLKAYVEKFSYKSITTDDWKDFLYSYFKDKVDVLNQVDWNAWLYSPGLPPIKPNYDMTLTNACIALSQRWITAKEDDLNSFNATDLKDLSSHQLNEFLAQTLQRAPLPLGHIKRMQEVYNFNAINNSEIRFRWLRLCIQSKWEDAIPLALKMATEQGRMKFTRPLFKDLAAFDKSHDQAVRTYQEHKASMHPVTAMLVGKDLKVD [LTA4H]”, the “solubility in G1/S (log2)” value with HeLa Kyoto [1] came out at 0.0608. Also, the thermal stability score turned out to be 1.7 in the series on HeLa Kyoto [2] (setting [5]) and 0.372 in the series with HeLa Kyoto [2] (cell cycle stage: mitosis). Moreover, the melting temperature in the series on HeLa Kyoto [3] (cell cycle stage: G1/S) and in the series with HeLa Kyoto [3] (cell cycle stage: mitosis) was 53 °C throughout. Moreover, the “solubility change mitosis (log2)” value in the series with HeLa Kyoto [4] is -0.173.

Consider “MLFLALGSPWAVELPLCGRRTALCAAAALRGPRASVSRASSSSGPSGPVAGWSTGPSGAARLLRRPGRAQIPVYWEGYVRFLNTPSDKSEDGRLIYTGNMARAVFGVKCFSYSTSLIGLTFLPYIFTQNNAISESVPLPIQIIFYGIMGSFTVITPVLLHFITKGYVIRLYHEATTDTYKAITYNAMLAETSTVFHQNDVKIPDAKHVFTTFYAKTKSLLVNPVLFPNREDYIHLMGYDKEEFILYMEETSEEKRHKDDK [TMEM70]”, for which the “solubility in G1/S (log2)” value with HeLa Kyoto [1] was -0.0239. Besides, the thermal stability score with HeLa Kyoto [2] (setting [5]) is 0.217; in the series with HeLa Kyoto [2] (cell cycle stage: mitosis), -1.65. Moreover, the melting temperature in the series with HeLa Kyoto [3] (cell cycle stage: G1/S) worked out at 54.1 °C; in the series with HeLa Kyoto [3] (cell cycle stage: mitosis), 53.4 °C. Besides, in the series with HeLa Kyoto [4], the “solubility change mitosis (log2)” value is -0.344.

As for “MDATALERDAVQFARLAVQRDHEGRYSEAVFYYKEAAQALIYAEMAGSSLENIQEKITEYLERVQALHSAVQSKSADPLKSKHQLDLERAHFLVTQAFDEDEKENVEDAIELYTEAVDLCLKTSYETADKVLQNKLKQLARQALDRAEALSEPLTKPVGKISSTSVKPKPPPVRAHFPLGANPFLERPQSFISPQSCDAQGQRYTAEEIEVLRTTSKINGIEYVPFMNVDLRERFAYPMPFCDRWGKLPLSPKQKTTFSKWVRPEDLTNNPTMIYTVSSFSIKQTIVSDCSFVASLAISAAYERRFNKKLITGIIYPQNKDGEPEYNPCGKYMVKLHLNGVPRKVIIDDQLPVDHKGELLCSYSNNKSELWVSLIEKAYMKVMGGYDFPGSNSNIDLHALTGWIPERIAMHSDSQTFSKDNSFRMLYQRFHKGDVLITASTGMMTEAEGEKWGLVPTHAYAVLDIREFKGLRFIQLKNPWSHLRWKGRYSENDVKNWTPELQKYLNFDPRTAQKIDNGIFWISWDDLCQYYDVIYLSWNPGLFKESTCIHSTWDAKQGPVKDAYSLANNPQYKLEVQCPQGGAAVWVLLSRHITDKDDFANNREFITMVVYKTDGKKVYYPADPPPYIDGIRINSPHYLTKIKLTTPGTHTFTLVVSQYEKQNTIHYTVRVYSACSFTFSKIPSPYTLSKRINGKWSGQSAGGCGNFQETHKNNPIYQFHIEKTGPLLIELRGPRQYSVGFEVVTVSTLGDPGPHGFLRKSSGDYRCGFCYLELENIPSGIFNIIPSTFLPKQEGPFFLDFNSIIPIKITQLQ [CAPN7]”, the “solubility in G1/S (log2)” value with HeLa Kyoto [1] worked out at 0.0756. Also, the thermal stability score is -0.306 with HeLa Kyoto [2] (setting [5]) and -0.374 in the series on HeLa Kyoto [2] (cell cycle stage: mitosis). For the same sequence, the melting temperature in the series on HeLa Kyoto [3] (cell cycle stage: G1/S) is 50.4 °C; in the series on HeLa Kyoto [3] (cell cycle stage: mitosis), 49.7 °C. For the same sequence, the “solubility change mitosis (log2)” value in the series on HeLa Kyoto [4] was -0.0174.

On to “MPKTISVRVTTMDAELEFAIQPNTTGKQLFDQVVKTIGLREVWFFGLQYQDTKGFSTWLKLNKKVTAQDVRKESPLLFKFRAKFYPEDVSEELIQDITQRLFFLQVKEGILNDDIYCPPETAVLLASYAVQSKYGDFNKEVHKSGYLAGDKLLPQRVLEQHKLNKDQWEERIQVWHEEHRGMLREDAVLEYLKIAQDLEMYGVNYFSIKNKKGSELWLGVDALGLNIYEQNDRLTPKIGFPWSEIRNISFNDKKFVIKPIDKKAPDFVFYAPRLRINKRILALCMGNHELYMRRRKPDTIEVQQMKAQAREEKHQKQMERAMLENEKKKREMAEKEKEKIEREKEELMERLKQIEEQTKKAQQELEEQTRRALELEQERKRAQSEAEKLAKERQEAEEAKEALLQASRDQKKTQEQLALEMAELTARISQLEMARQKKESEAVEWQQKAQMVQEDLEKTRAELKTAMSTPHVAEPAENEQDEQDENGAEASADLRADAMAKDRSEEERTTEAEKNERVQKHLKALTSELANARDESKKTANDMIHAENMRLGRDKYKTLRQIRQGNTKQRIDEFESM [MSN]”, for which, in the series on HeLa Kyoto [1], the “solubility in G1/S (log2)” value stood at 0.0519. Moreover, the thermal stability score in the series on HeLa Kyoto [2] (setting [5]) is -0.264; in the series with HeLa Kyoto [2] (cell cycle stage: mitosis), 1.56. Also, the melting temperature was 52.1 °C with HeLa Kyoto [3] (cell cycle stage: G1/S) and 52 °C in the series on HeLa Kyoto [3] (cell cycle stage: mitosis). Also, in the series on HeLa Kyoto [4], the “solubility change mitosis (log2)” value was -0.0148.

Turning to “MSAFSEAALEKKLSELSNSQQSVQTLSLWLIHHRKHSRPIVTVWERELRKAKPNRKLTFLYLANDVIQNSKRKGPEFTKDFAPVIVEAFKHVSSETDESCKKHLGRVLSIWEERSVYENDVLEQLKQALYGDKKPRKRTYEQIKVDENENCSSLGSPSEPPQTLDLVRALQDLENAASGDAAVHQRIASLPVEVQEVSLLDKITDKESGERLSKMVEDACMLLADYNGRLAAEIDDRKQLTRMLADFLRCQKEALAEKEHKLEEYKRKLARVSLVRKELRSRIQSLPDLSRLPNVTGSHMHLPFAGDIYSED [RPRD1A]”, the “solubility in G1/S (log2)” value in the series on HeLa Kyoto [1] came out at 0.66. The thermal stability score is 1.27 in the series with HeLa Kyoto [2] (setting [5]) and 1.64 with HeLa Kyoto [2] (cell cycle stage: mitosis). Moreover, the melting temperature was determined as 48 °C in the series on HeLa Kyoto [3] (cell cycle stage: G1/S) and 49.5 °C in the series on HeLa Kyoto [3] (cell cycle stage: mitosis). Further, in the series with HeLa Kyoto [4], the “solubility change mitosis (log2)” value was -0.0443.
